One molecule from patent US20180038858A1 (published 2018) can be followed below.

The target in one assay is hCCR5 (human, UniProt P51681 1-352). In words: cell-based or functional assay.
Assay [1] has as its target T1, CCR1 on peripheral blood monocytes (human, UniProt P32246 1-355).
T1 construct: whole, on cells; also called chemokine (C-C motif) receptor 1
T1 sequence (looked up): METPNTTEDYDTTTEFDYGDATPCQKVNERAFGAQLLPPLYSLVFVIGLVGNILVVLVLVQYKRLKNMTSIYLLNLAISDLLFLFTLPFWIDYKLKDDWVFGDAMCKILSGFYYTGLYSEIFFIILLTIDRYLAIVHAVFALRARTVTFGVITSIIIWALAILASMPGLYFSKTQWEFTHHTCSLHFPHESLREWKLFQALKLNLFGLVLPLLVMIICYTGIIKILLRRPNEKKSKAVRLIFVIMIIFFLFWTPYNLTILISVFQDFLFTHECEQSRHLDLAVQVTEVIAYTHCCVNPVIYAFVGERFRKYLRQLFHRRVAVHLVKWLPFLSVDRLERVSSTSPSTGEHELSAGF
In words: flow cytometry, biotinylated chemokine (1 µM) detected with fluorophore-streptavidin, on blood monocytes of a sarcoidosis patient. A general note: In flow cytometry, cells or beads pass a laser one at a time.
Experimental: Peripheral blood from patients and healthy controls was collected in heparin tubes. The red blood cells were lysed using Fix Buffer (Phosphate Buffer Saline (PBS) citrate with 4% paraformaldehyde) for four minutes at 37° C. and Lysing buffer (PBS with 10 mM Tris and 160 mM NH4Cl, pH 7.5) for 15 min at 37° C. The cells were washed in PBS with 2% Bovine Growth Serum, incubated with 10% human serum 15 min at room temperature (RT) and stained with cell specific antibodies together with biotinylated chemokine (1 μM) or the corresponding chemokine receptor antibody at 4° C. for 30 min (Table 1). The biotinylated chemokine was detected via the interaction between biotin and a fluorophore conjugated Streptavidin. The samples were analysed by flow cytometry on a FACS Canto flow cytometer with the FACSDiva software (BD Biosciences).

Bridge positions count the residues as written; N and C are the ends. * marks the point of attachment. Biotin = O=C1N[C@H]2[C@H](CS[C@H]2CCCCC(=O)*)N1

Sequence of hCCR5 (P51681 whole entry): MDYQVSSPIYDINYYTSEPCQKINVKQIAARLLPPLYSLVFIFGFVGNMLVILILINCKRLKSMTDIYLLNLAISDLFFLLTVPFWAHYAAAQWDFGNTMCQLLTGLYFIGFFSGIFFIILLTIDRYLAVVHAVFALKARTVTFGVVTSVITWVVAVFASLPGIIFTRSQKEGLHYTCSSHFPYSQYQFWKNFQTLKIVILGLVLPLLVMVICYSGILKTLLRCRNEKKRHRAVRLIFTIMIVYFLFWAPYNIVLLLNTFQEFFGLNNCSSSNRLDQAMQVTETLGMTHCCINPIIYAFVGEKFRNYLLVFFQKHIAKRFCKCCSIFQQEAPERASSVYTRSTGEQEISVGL

B1: biotinRANTES (CCL5), RANTES derivatised at Lys(67) with Biotin (ligand)
chain: H-SPYSSDTTPCCFAYIARPLPRAHIKEYFYTSGKCSNPAVVFVTRKNRQVCANPEKKWVREYINSLEK(Biotin)S-OH
modifications: disulfide 10-34, 11-50
notes: Residues 1-68 of mature human RANTES; also called biotinylated RANTES; bRANTES
As to B1, the “EC50, agonist activity in an Aequorin assay” value in the assay with hCCR5 amounted to 0.5 nM. Further, the binding result in assay [1] is reported as “binds”.
